{"source": "paper PMC6212794", "about": "“Crystal structure of the modification-dependent SRA-HNH endonuclease TagI”", "molecules": {"B1": {"name": "17mer fully methylated duplex (dsDNA)", "DNA 1": "CCTAGAGCAGCAATCCC", "DNA 2": "GGGATTGCTGCTCTAGG", "modifications": "5mC at position 8 of strand 1 and position 8 of strand 2"}, "B2": {"name": "17mer unmodified duplex (dsDNA)", "DNA 1": "CCTAGAGCAGCAATCCC", "DNA 2": "GGGATTGCTGCTCTAGG"}}, "key": {"[1]": {"target": "TagI, SRA-HNH modification-dependent restriction endonuclease from Thermocrispum agreste (Thermocrispum agreste)", "test": "SEC; analytical gel filtration of TagI alone; apparent molecular mass compared with the theoretical mass of the dimer"}, "[2]": {"target": "TagI, SRA-HNH modification-dependent restriction endonuclease from Thermocrispum agreste (Thermocrispum agreste)", "test": "SEC-MALS; multi-angle light scattering of TagI alone"}, "TagI [3]": {"target": "T1, TagI (Thermocrispum agreste, UniProt A0A3F2YM30 1-311)", "T1 sequence": "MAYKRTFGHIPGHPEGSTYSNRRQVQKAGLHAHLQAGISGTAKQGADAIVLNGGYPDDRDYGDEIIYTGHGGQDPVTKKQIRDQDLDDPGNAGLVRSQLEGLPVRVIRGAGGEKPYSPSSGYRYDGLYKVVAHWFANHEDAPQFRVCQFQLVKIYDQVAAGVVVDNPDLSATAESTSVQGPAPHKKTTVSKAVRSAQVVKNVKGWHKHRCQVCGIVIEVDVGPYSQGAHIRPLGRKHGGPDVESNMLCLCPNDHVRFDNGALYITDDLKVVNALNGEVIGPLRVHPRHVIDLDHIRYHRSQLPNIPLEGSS", "test": "analytical gel filtration (SEC co-migration); 1, 2 or 4 duplexes per TagI dimer; sharp complex peak, 93 kDa, about 1 duplex per dimer; analytical gel filtration; buffer, salt, pH and temperature not given in the material", "settings": "protein: recombinant; chain copies: 2; blunt"}, "TagI [4]": {"target": "T1, TagI", "test": "analytical gel filtration (SEC co-migration); 1, 2 or 4 duplexes per TagI dimer; migrated independently; analytical gel filtration; buffer, salt, pH and temperature not given in the material", "settings": "protein: recombinant; chain copies: 2; blunt"}}, "data": [{"molecule": "TagI, SRA-HNH modification-dependent restriction endonuclease from Thermocrispum agreste (enzyme)", "values": [{"measurement": "stoichiometry N", "setting": "[1]", "result": 2}, {"measurement": "stoichiometry N", "setting": "[2]", "result": 2}]}, {"molecule": "B1", "values": [{"measurement": "binding result", "setting": "TagI [3]", "result": "binds"}]}, {"molecule": "B2", "values": [{"measurement": "binding result", "setting": "TagI [4]", "result": "no binding"}]}]}
